Reference: patent US20030078381A1 (VANDERBILT UNIVERSITY, published 2003)
Blank lines part the entries; values can stand above or below the binder they belong to.

Experiments:
[1] = target: T1, IL-20 receptor (IL-20R1/IL-20R2) heterodimeric receptor on co-transfected cells (human, UniProt Q6UXL0 30-311); assay: in situ cell surface AP staining of transfected Cos cells
T1 construct: whole, on cells; Both subunits were co-transfected into Cos-E5, BHK or Ba/F3 cells
T1 sequence 1: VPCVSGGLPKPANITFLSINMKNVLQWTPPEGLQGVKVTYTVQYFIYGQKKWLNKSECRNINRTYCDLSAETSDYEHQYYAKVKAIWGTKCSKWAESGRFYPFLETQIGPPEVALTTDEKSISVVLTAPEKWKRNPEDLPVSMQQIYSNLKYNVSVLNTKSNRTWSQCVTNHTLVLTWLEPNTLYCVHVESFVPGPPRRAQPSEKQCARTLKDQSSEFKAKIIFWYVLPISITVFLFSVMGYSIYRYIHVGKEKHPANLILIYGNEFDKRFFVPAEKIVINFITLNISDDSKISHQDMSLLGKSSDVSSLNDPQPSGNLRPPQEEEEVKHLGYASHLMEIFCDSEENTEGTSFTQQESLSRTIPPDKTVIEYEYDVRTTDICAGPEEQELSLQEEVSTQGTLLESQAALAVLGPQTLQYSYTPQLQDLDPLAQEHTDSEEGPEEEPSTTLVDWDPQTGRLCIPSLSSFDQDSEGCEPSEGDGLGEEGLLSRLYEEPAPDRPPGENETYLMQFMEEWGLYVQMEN
T1 sequence 2: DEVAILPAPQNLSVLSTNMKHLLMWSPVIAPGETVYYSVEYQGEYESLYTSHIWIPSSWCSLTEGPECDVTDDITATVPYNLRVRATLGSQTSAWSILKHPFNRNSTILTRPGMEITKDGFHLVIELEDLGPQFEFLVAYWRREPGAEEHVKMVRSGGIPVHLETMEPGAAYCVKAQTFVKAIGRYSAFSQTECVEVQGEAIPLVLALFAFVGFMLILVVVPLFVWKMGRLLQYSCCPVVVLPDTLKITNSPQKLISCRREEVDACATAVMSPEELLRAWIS
Text: (§1) FIG. 3C illustrates cell surface staining assay for the IL-24 receptor binding. Cos-E5 cells transfected with either the IL-20R1, IL-22R1 and IL20R2 expression vector alone or in pairs were stained for the cell surface-bound IL-24-AP activity and viewed under a light microscope (20× magnification) without phase contrast.
(§2) Based on published data and database searches of GenBank (NCBI), only three R1 and two R2 types of the IL-10 family of receptor subunits can be identified. The three R1 subunits are IL-10R1, IL-20R1 and IL-22R1, whereas the two R2 subunits are IL-20R2 and IL-1OR2, the latter of which is also the second receptor subunit for IL-22. Thus, the IL-24 receptor could be a heterodimer of a combination of the known R1 and R2 receptors. […] The quantitative cell surface binding assays were carried out with Cos cells after transfecting plasmids over-expressing IL-10R2, IL-20R1, IL-22R1 and IL-20R2 individually or in all four R1/R2 combinations (FIG. 3B). […] Using AP staining assays, the quantitative IL-24-AP binding data was confirmed (FIG. 3C). Specific cell surface staining was detected with IL-24-AP when Cos cells were transiently transfected with […] (FIG. 3C).

[2] = target: T2, IL-22R1/IL-20R2 heterodimeric receptor on co-transfected cells (human, UniProt Q6UXL0 30-311); assay: as above
T2 construct: whole, on cells; Both subunits were co-transfected into Cos-E5, BHK or Ba/F3 cells; also called IL-24 receptor (IL-22R1/IL-20R2)
T2 sequence 1: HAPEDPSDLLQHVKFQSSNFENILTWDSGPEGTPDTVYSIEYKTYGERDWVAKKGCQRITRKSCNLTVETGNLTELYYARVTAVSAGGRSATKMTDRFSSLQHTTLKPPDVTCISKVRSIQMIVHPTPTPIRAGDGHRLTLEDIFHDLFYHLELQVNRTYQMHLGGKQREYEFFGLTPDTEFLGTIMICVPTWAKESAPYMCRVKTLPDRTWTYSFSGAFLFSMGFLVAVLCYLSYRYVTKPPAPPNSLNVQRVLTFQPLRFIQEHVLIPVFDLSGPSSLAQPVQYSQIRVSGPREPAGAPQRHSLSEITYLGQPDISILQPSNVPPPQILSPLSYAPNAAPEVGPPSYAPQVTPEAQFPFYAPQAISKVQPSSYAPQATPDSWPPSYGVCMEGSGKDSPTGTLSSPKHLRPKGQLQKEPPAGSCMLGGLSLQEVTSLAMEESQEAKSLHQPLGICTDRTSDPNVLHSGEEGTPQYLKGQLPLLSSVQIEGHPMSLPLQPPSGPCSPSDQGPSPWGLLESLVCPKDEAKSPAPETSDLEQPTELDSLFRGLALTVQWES
T2 sequence 2: T1 sequence 2
Text: as §1, §2

[3] = target: T3, human IL-20R1, expressed alone on transfected cells (human, UniProt Q9UHF4 30-553); assay: quantitative cell surface AP binding assay on transfected Cos cells
T3 sequence: T1 sequence 1

[4] = target: T4, human IL-22R1, expressed alone on transfected cells (human, UniProt Q8N6P7 16-574); assay: as above
T4 sequence: T2 sequence 1

[5] = target: T5, secreted human placental alkaline phosphatase (AP) (human, UniProt P05187 23-511); assay: as above
T5 construct: Control probe, used as conditioned medium; also called AP control
T5 sequence (P05187 23-511): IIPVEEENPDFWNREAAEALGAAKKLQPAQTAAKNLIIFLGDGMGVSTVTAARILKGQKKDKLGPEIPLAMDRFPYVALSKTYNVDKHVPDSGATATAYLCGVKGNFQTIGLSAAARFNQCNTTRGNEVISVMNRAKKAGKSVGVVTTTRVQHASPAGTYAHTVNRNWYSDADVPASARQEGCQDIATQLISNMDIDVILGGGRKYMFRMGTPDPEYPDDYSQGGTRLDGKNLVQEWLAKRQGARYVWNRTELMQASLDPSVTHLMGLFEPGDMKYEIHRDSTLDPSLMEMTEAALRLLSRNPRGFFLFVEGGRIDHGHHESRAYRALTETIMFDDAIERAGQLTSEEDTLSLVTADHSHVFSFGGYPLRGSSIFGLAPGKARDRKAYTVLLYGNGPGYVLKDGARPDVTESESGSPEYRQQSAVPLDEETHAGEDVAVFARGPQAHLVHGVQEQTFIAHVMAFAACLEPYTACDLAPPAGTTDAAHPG

binding result [1]: binds | binding result [2]: binds | binding result [3]: no binding | binding result [4]: no binding
B1: human IL-24-AP fusion protein (ligand, UniProt Q13007 52-206, looked up)
chain: QEFHFGPCQVKGVVPQKLWEAFWAVKDTMQAQDNITSARLLQQEVLQNVSDAESCYLVHTLLEFYLKTVFKNYHNRTVEVRTLKSFSTLANNFVLIVSQLQPSQENEMFSIRDSAHRRFLLFRRAFKQLDVEAALTKALGEVDILLTWMQKFYKL
notes: Used as conditioned medium; also called Mob-5-alkaline phosphatase fusion protein; not shown: secreted human placental alkaline phosphatase (AP)

binding result [5]: no binding
B2: human IL-20R2, expressed alone on transfected cells (receptor, UniProt Q6UXL0 30-311, looked up)
chain: T1 sequence 2
notes: whole, on cells
